Reference: publication PMC8653789

Key:
Experiment in all cases: AlphaScreen or HTRF
[1] = target: H3K4me1/H4K12ac nucleosome (UniProt P04908)
[2] = target: H3K4me2/H4K12ac nucleosome (UniProt P04908)
[3] = target: H3K4me3/H4K12ac nucleosome (UniProt P04908)

Substance | fold reduction of binding relative to wild type [1] | fold reduction of binding relative to wild type [2] | fold reduction of binding relative to wild type [3]
PHIP Tudor–BD1–BD2 R1310C (from UniProt Q8WWQ0 940-1434) (domain or fragment) | > 4 fold | > 4 fold | 
PHIP Tudor–BD1–BD2 R1402S (from UniProt Q8WWQ0 940-1434) (domain or fragment) | > 10 fold | > 10 fold | > 10 fold
PHIP Tudor–BD1–BD2 W1156L (from UniProt Q8WWQ0 940-1434) (domain or fragment) | > 3 fold | > 3 fold | 
